Substitutions are numbered along the chain they refer to.

This note sets out measurements from US20170267764A1 (INNATE PHARMA, published 2017).

Sequences and labels used below:
T1: human MICA allele MICA*007 (human, UniProt Q29983 24-297)
T1 construct: Expressed on transfected C1R cells; also called MICA*07; C1R-MICA*007
T1 chain: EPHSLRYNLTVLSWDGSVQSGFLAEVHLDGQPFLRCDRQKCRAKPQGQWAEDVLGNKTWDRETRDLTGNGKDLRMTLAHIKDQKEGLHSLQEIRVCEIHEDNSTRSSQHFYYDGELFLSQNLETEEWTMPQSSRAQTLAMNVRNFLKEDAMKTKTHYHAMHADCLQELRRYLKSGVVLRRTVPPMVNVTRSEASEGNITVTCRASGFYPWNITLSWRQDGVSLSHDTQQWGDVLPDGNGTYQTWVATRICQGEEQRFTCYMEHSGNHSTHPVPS

T2: human MICA allele MICA*008 (human, UniProt Q29983 24-297)
T2 construct: Expressed on transfected C1R cells; also called MICA*08; C1R-MICA*008
T2 chain: T1 chain with C36Y, M129V, K173E, G206S, W210R, T213I, S215T, Q251R

T3: human MICA allele MICA*001 (human, UniProt Q29983 24-297)
T3 sequence: T1 chain with A24T, E125K

T4: human MICA allele MICA*004 (human, UniProt Q29983 24-297)
T4 construct: Expressed on transfected C1R cells; also called MICA*04; C1R-MICA*004
T4 chain: T1 chain with C36Y, L122V, M129V, K173E, G175S, T181R, G206S, W210R, S215T

B1: mAb4 (antibody, V domains shown)
VH: QVQLQESGPGLVKPSETLSLTCTVSGYSITSDYAWNWIRQPPGKGLEWMGFVSYSGTTKYNPSLKSRVTISRDTSKNQFSLKLSSVTAADTAVYYCARGYGFDYWGQGTTVTVSS
VL: EIVLTQSPATLSLSPGERATLSCSATSSISSIYFHWYQQKPGQAPRLLIYRTSNLASGIPARFSGSGSGTDYTLTISSLEPEDFAVYYCQQGTTIPFTFGQGTKLEIK
notes: Produced in CHO cells as human IgG1 with huCk constant domain
B2: mAb7 (antibody, V domains shown)
VH: B1 VH with K76E
VL: B1 VL
notes: as for B1
B3: mAb1 (antibody, V domains shown)
VH: B1 VH with M49I
VL: B1 VL
notes: Produced in CHO cells as human IgG1 with huCk constant domain; also called anti-MICA mAb1; anti-MICA antibody mAb1
B4: mAb8 (antibody, V domains shown)
VH: B1 VH with K76E
VL: B1 VL with D71S
notes: as for B1
B5: mAb10 (antibody, V domains shown)
VH: B1 VH with V68I, K76E
VL: B1 VL
notes: as for B1
B6: mAb12 (antibody, V domains shown)
VH: B1 VH with V68I, K76E
VL: B1 VL with F84V
notes: as for B1
B7: mAb2 (antibody, V domains shown)
VH: B1 VH with M49I
VL: B1 VL with D71S
notes: as for B1
B8: mAb5 (antibody, V domains shown)
VH: B1 VH
VL: B1 VL with D71S
notes: as for B1
B9: mAb3 (antibody, V domains shown)
VH: B1 VH with M49I
VL: B1 VL with F84V
notes: as for B1
B10: mAb11 (antibody, V domains shown)
VH: B1 VH with V68I, K76E
VL: B1 VL with D71S
notes: as for B1
B11: mAb9 (antibody, V domains shown)
VH: B1 VH with K76E
VL: B1 VL with F84V
notes: as for B1
B12: mAb6 (antibody, V domains shown)
VH: B1 VH
VL: B1 VL with F84V
notes: as for B1

The first test addresses T1, human MICA allele MICA*007. The test can be described thus: flow cytometry, C1R-MICA*007 transfectant cells. The procedure:
(§1) The binding of the antibodies in Table 2 of Example 1 were tested for binding to MICA-expressing C1R transfectant cells (ATCC reference CRL-1993™) transfected with RSV.5neo vectors (GenBank (NCBI) under Accession number M83237), as described in Salih et al. (2003) Blood 102(4): […], referred to as C1R-MICA*001, C1R-MICA*004, C1R-MICA*007 and C1R-MICA*008. Binding was analyzed by flow cytometry.
(§2) Cells were harvested and stained in PBS 1×/BSA 0.2%/EDTA 2 mM buffer during 30 minutes at 4° C. using a dose-range of the anti-MICA mAbs. After two washes in staining buffer, cells were stained for 30 min at 4° C. with mouse anti-human IgG1-PE monoclonal antibodies (1/11). After two washes, stainings were acquired on a BD FACS Canto II and analyzed using the FlowJo software.
A general note: A flow cytometer gives signals particle by particle.
Usually EC50 stands for the concentration at which the effect is half-maximal. With B1, the midpoint of the response, the EC50, lay at 0.0875 µg/mL.

Turning to B2, the EC50 was 0.0668 µg/mL.

Consider B3, for which it took 0.033 µg/mL to reach a half-maximal effect (EC50).

Regarding B4, the response was half-maximal at 0.0462 µg/mL (EC50).

Regarding B5, the EC50 came to 0.0498 µg/mL.

Molecule B6 displayed an EC50 of 0.086 µg/mL.

Turning to B7, it took 0.0502 µg/mL to reach a half-maximal effect (EC50).

The molecule B8 had a concentration giving a half-maximal response (EC50) of 0.0493 µg/mL.

Molecule B9 came in with a half-maximal effective concentration (EC50) of 0.0612 µg/mL.

With B10, the EC50 was determined as 0.0513 µg/mL.

Molecule B11 had an EC50 of 0.0519 µg/mL.

For B12, the EC50 stood at 0.0718 µg/mL.

The target in the next test is T2, human MICA allele MICA*008. The test can be described thus: flow cytometry, C1R-MICA*008 transfectant cells. The method, then:
as §1, §2
Molecule B1 came in with an EC50 of 0.0859 µg/mL.

In the case of B2, a half-maximal effect (EC50) was put at 0.0871 µg/mL.

For B3, the EC50 was 0.0612 µg/mL.

Molecule B4 came in with an EC50 of 0.0551 µg/mL.

As for B5, the EC50 stood at 0.144 µg/mL.

B6 had an EC50 of 0.0642 µg/mL.

Turning to B7, the EC50 turned out to be 0.0699 µg/mL.

On to B8, for which the EC50 was determined as 0.0958 µg/mL.

For the molecule B9, the response was half-maximal at 0.0822 µg/mL (EC50).

Regarding B10, it took 0.0789 µg/mL to reach a half-maximal effect (EC50).

B11 yielded an EC50 of 0.0515 µg/mL.

Molecule B12 yielded a half-maximal effective concentration (EC50) of 0.0953 µg/mL.

In another test the target is T3, human MICA allele MICA*001. The test can be described thus: cell-based or functional assay.
On to B3, for which the “EC50 (read off the curve), ADCC % specific lysis [panel C1R MICA*001]” value was about 0.003 µg/mL.

The next test concerns the target T2, human MICA allele MICA*008. The test can be described thus: cell-based or functional assay.
As for B3, the “EC50 (read off the curve), ADCC % specific lysis [panel C1R MICA*008]” value was about 0.0002 µg/mL.

For a further test, the target named is T3, human MICA allele MICA*001. Nature of the test: flow cytometry, C1R-MICA*001 transfectant cells; reference: parental antibody. The method, then: as §1, §2
Take B3: the “fold improvement in affinity compared to the parental antibody” value was determined as 2.4 fold.

Take B7: the “fold improvement in affinity compared to the parental antibody” value is about 3 fold.

The next test has as its target T4, human MICA allele MICA*004. Nature of the test: flow cytometry, C1R-MICA*004 transfectant cells. The procedure: as §1, §2
Take B1: the EC50 stood at 0.063 µg/mL.

In turn, B2 displayed an EC50 of 0.0616 µg/mL.

Consider B3, for which the half-maximal effective concentration (EC50) was determined as 0.0417 µg/mL.

For the molecule B4, a half-maximal response (EC50) required 0.0481 µg/mL.

On to B5, for which it took 0.0631 µg/mL to reach a half-maximal effect (EC50).

For B6, it took 0.0672 µg/mL to reach a half-maximal effect (EC50).

B7 displayed an EC50 of 0.0381 µg/mL.

Molecule B8 came in with an EC50 of 0.0762 µg/mL.

As for B9, a half-maximal response (EC50) required 0.0608 µg/mL.

Molecule B10 showed an EC50 of 0.0614 µg/mL.

On to B11, for which the EC50 amounted to 0.0438 µg/mL.

For B12, a half-maximal effect (EC50) was put at 0.0838 µg/mL.

A further test deals with T3, human MICA allele MICA*001. Nature of the test: flow cytometry, C1R-MICA*001 transfectant cells. The procedure: as §1, §2
B1 yielded a concentration for a half-maximal effect (EC50) of 0.316 µg/mL.

B2 gave an EC50 of 0.288 µg/mL.

Consider B3, for which a half-maximal effect (EC50) was put at 0.184 µg/mL.

B4 showed an EC50 of 0.191 µg/mL.

The molecule B5 registered an EC50 of 0.307 µg/mL.

The molecule B6 yielded an EC50 of 0.453 µg/mL.

B7: the EC50 came to 0.151 µg/mL.

Molecule B8 yielded an EC50 of 0.318 µg/mL.

Regarding B9, the EC50 turned out to be 0.265 µg/mL.

Regarding B10, the EC50 is 0.32 µg/mL.

B11 yielded a concentration giving a half-maximal response (EC50) of 0.318 µg/mL.

Molecule B12 came in with an EC50 of 0.407 µg/mL.
